Consider two substances from paper PMC3448684, “IP-FCM Measures Physiologic Protein-Protein Interactions Modulated by Signal Transduction and Small-Molecule Drug Inhibition” (PLoS ONE, 2012).

In one assay the target is T1, IL-2 (Homo sapiens, UniProt P60568, C145S).
T1 construct: gene IL2; recombinant human IL-2 (Proleukin); with CD25 (IL-2 receptor α-chain; recombinant human CD25-Fc chimera, or endogenous CD25 from PBMC lysate)
In words: IP-FCM bead assay of the IL-2:CD25 interaction with recombinant proteins (also with endogenous CD25 captured from PBMC lysate). Format: biochemical.

In assay [1] the target is recombinant human CD25-Fc chimera (human) (UniProt P01589). The experiment in a line: IP-FCM (capture on antibody beads, detection by flow cytometry); CD25-Fc captured on anti-CD25 CML beads overnight, washed; IL-2 (1,000 U/ml) added for 1 h with or without Ro-26-4550 or control compounds; washed, probed with anti-IL-2. (In general: A flow cytometer gives signals particle by particle.)

Assay [2] has the same target. The experiment in a line: IP-FCM (capture on antibody beads, detection by flow cytometry); data not shown: as a4 with recombinant CD25, but 500 U/ml or 10,000 U/ml IL-2.

Chain of recombinant human IL-2 (Proleukin) (P60568 21-153): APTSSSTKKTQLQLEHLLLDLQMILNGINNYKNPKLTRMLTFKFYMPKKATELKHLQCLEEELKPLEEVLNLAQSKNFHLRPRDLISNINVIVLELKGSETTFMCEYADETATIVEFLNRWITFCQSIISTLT
Chain of recombinant human CD25-Fc chimera (human) (P01589 22-240, change not shown): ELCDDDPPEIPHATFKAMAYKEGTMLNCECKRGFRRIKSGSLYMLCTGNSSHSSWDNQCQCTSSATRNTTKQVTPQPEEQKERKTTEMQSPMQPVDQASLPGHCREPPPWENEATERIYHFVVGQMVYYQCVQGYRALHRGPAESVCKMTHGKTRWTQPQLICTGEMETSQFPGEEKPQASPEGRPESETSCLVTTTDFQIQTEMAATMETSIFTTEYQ
T1 sequence (P60568 22-153 C145S): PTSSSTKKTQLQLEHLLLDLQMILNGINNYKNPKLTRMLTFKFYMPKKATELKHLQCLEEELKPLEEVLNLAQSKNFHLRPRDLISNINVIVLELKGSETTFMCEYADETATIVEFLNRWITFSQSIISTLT
T1 sequence (P01589 22-272 partner): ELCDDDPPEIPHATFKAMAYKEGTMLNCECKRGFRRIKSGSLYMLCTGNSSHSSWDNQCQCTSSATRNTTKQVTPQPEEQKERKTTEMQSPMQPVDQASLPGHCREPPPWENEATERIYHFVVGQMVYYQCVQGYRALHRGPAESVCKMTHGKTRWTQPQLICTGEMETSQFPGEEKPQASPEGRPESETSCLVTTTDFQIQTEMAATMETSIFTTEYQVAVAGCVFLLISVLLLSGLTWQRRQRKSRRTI

Turning to Ro-26-4550 [R26], the “% reduction of IL-2:CD25 binding at 10 μM (Methods; printed as 10 mM in Results)” value on IL-2 is given as 62 % reduction of IL-2:CD25 binding at 10 µM (Methods; printed as 10 mM in Results). Turning to “recombinant human IL-2 (Proleukin) (from UniProt P60568 21-153) (ligand)”, in assay [1], the percent reduction of binding with Ro-26-4550 (10 mM [sic]), 1,000 U/ml IL-2 is 62%. The percent reduction of binding with Ro-26-4550, 10,000 U/ml IL-2 in assay [2] is 44%.
